Data taken from patent US20140086916A1 (Merck Sharp & Dohme, published 2014).
Like-named read-outs stand apart in the source and are kept apart here.

Legend:
FcγRIIA H = target: T1, FcγRIIA H (UniProt P12318 34-217, limits assumed); assay: FcγR affinity assay 'as described in Example 7', n = 3; printed as Affinity (nM) ± STDEV
T1 construct: also called FcgRIIA H
T1 sequence (looked up): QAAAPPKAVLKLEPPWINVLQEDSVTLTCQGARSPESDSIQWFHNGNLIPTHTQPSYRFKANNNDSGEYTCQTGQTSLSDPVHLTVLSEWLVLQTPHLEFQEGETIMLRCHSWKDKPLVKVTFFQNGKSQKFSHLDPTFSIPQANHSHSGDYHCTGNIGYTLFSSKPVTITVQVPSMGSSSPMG
Procedure: (§1) Fcγ receptor binding assays were carried out as described (Shields, et al. (2001) J. Biol. Chem. 276:6591-6604) with minor modifications. High protein binding 96-well plates (Corning Costar) were coated with 100 μL per well of Fcγ receptor solutions in PBS at the following concentrations: 1 μg/mL for both FcγRI (R&D Systems) and FcγRIIa (Pichia pastoris produced), 2 μg/mL for FcγRIIb (P. pastoris produced), 0.8 μg/mL for FcγRIIIa-F158, and 0.4 μg/mL for FcγRIIIa-V158 (both P. pastoris produced). All Pichia pastoris produced receptors were expressed and purified as described (Li, et al. (2006) Nature Biotechnology 24:210-215). Monomeric antibody samples added to the FcγRI plate were serially diluted in assay diluent (1×PBS, 1% BSA, and 0.05% Tween20) and 100 μL, per well was added to the plate. Antibody samples prepared for the remaining receptors require a one hour dimerization step with half molar ratio of goat anti-human IgG F(ab′)2 F(ab′)2 that is conjugated with alkaline phosphatase for detection. These dimerized F(ab′)2/antibody complexes were also serially diluted and 100 μL per well were added to the remaining receptor plates and all plates were incubated for one hour at room temperature. FcγRI bound sample antibody was detected using the same goat anti-human IgG F(ab′)2 alkaline phosphatase conjugated F(ab′)2. Sample antibody binding was quantified by measuring excitation at 340 nm and emission at 465 nm after 18 hour incubation with SuperPhos, 4-MUP Fluorescence AP Substrate Detection System (Virolabs).

[1] = target: T2, FcγRIIIa-F158 (Pichia pastoris produced) (UniProt P08637 17-208, limits assumed); assay: as above
T2 construct: also called FcγRIIIA LF; FcgRIIIA LF
T2 sequence (P08637 17-208 limits assumed): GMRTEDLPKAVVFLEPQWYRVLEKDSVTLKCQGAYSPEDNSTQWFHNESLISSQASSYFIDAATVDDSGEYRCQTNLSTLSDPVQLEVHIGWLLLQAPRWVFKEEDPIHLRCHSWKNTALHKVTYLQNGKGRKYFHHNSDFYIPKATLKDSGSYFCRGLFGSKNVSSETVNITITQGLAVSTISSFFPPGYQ
Procedure: as §1

[2] = target: T3, FcγRIIIa-V158 (Pichia pastoris produced) (UniProt P08637 17-208, limits assumed); assay: as above
T3 construct: also called FcγRIIIA LV; FcgRIIIA LV
T3 sequence (P08637 17-208 F176V limits assumed): as the sequence (P08637 17-208 limits assumed) above, with F160V counted along it
Procedure: as §1

[3] = target: T3, FcγRIIIa-V158 (Pichia pastoris produced); assay: ELISA-type plate assay, FcγR coated, antibody dimerized with AP-conjugated goat anti-human IgG F(ab')2, RFU readout
Procedure: as §1

[4] = target: T3, FcγRIIIa-V158 (Pichia pastoris produced); assay: as above; remark: listed apart in the source
Procedure: as §1

[5] = target: T3, FcγRIIIa-V158 (Pichia pastoris produced); assay: as above; remark: listed apart in the source
Procedure: as §1

wild-type human PCSK9 = target: T4, wild-type human PCSK9 (human, UniProt Q8NBP7 31-692, limits assumed); assay: SPR (Biacore T100), average KD of the two 1F11 runs
T4 construct: also called PCSK9 antigen
Procedure: The CM5 chip was immobilized on all flowcells with mouse anti-human IgG (Fc specific) according to the Biacore Human Antibody Capture Kit (Cat# BR-1008-39) to ˜7000RU. Anti-PCSK9 antibodies were captured on the chip to ˜500RU followed by analyte injections of wild-type human PCSK9 from 64.1 nM to 2.0 nM. Each flowcell was regenerated between each analyte injection with 3M MgCl for 40 seconds at 10 uL/min. Data was analyzed with Biacore T100 Evaluation Software using the 1:1 binding model using at least 5 point concentration range sensogram.

[6] = target: T3, FcγRIIIa-V158 (Pichia pastoris produced); assay: ELISA-type plate assay, FcγR coated, antibody dimerized with AP-conjugated goat anti-human IgG F(ab')2, RFU readout; remark: listed apart in the source
Procedure: as §1

[7] = target: T3, FcγRIIIa-V158 (Pichia pastoris produced); assay: as above; remark: listed apart in the source
Procedure: as §1

[8] = target: T3, FcγRIIIa-V158 (Pichia pastoris produced); assay: as above; remark: listed apart in the source
Procedure: as §1

[9] = target: T2, FcγRIIIa-F158 (Pichia pastoris produced); assay: ELISA on plate-coated receptor; antibody dimerized with anti-human IgG F(ab')2-AP; ELISA IC50, YGLY23258 (dimer), Table 3 experiment
Procedure: as §1, with “These dimerized F(ab′)2/antibody complexes were also serially diluted and 100 μL per well were added to the remaining receptor plates and all plates were incubated for one hour at room temperature.” left out

[10] = target: T3, FcγRIIIa-V158 (Pichia pastoris produced); assay: as above
Procedure: as §1, with “These dimerized F(ab′)2/antibody complexes were also serially diluted and 100 μL per well were added to the remaining receptor plates and all plates were incubated for one hour at room temperature.” left out

[11] = target: T5, FcγRIIb (Pichia pastoris produced) (UniProt P31994 43-217, limits assumed); assay: FcγR affinity assay 'as described in Example 7', n = 3; printed as Affinity (nM) ± STDEV; Table 12 affinity (nM) assay, n = 3; not the dimer ELISA of Tables 3-7
T5 construct: also called FcgRIIB; CD32B
T5 sequence (looked up): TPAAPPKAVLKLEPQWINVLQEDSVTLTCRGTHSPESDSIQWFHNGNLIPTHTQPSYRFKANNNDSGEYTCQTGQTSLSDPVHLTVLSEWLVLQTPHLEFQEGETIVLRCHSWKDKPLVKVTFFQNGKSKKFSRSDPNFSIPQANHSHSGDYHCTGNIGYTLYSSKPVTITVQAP

B1: 1F11 wildtype (parent) humanized anti-PCSK9 monoclonal IgG1 antibody (antibody)
heavy: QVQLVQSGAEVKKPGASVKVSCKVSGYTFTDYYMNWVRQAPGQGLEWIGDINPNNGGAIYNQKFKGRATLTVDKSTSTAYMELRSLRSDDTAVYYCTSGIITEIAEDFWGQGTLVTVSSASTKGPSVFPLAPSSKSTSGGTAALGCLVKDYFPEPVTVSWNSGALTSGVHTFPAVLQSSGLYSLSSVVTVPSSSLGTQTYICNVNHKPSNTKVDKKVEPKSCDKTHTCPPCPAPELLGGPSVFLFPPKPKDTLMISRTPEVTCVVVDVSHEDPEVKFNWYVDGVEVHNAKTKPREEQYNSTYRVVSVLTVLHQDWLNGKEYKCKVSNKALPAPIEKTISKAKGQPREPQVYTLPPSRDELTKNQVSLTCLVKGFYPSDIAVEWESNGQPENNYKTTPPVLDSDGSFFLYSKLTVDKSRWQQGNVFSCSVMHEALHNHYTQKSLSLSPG
light: DIQMTQSPSSLSASVGDRVTITCKASQNVGTNVVWYQQKPGKAPKALIHSASYRYSGVPSRFSGSGSGTDFTLTISSLQPEDFATYYCQQYKTYPYTFGQGTKVEIKRTVAAPSVFIFPPSDEQLKSGTASVVCLLNNFYPREAKVQWKVDNALQSGNSQESVTEQDSKDSTYSLSSTLTLSKADYEKHKVYACEVTHQGLSSPVTKSFNRGEC
notes: Produced in glycoengineered Pichia pastoris GFI5.0 (strain YGLY21351); also called 1F11 IgG1 GS5.0; YGLY21351
B1 showed a Kd (FcγRIIA H) of 892 nM, a Kd [1] of 203 nM and a Kd [2] of 0.15 nM. The “EC50 (read off the curve)” value [3] was ~0.03 µg/mL, the “EC50 (read off the curve)” value [4] was ~0.04 µg/mL and the “EC50 (read off the curve)” value [5] was ~0.05 µg/mL. The Kd (wild-type human PCSK9) was 2.8 nM, the “EC50 (read off the curve)” value [6] was ~0.04 µg/mL and the “EC50 (read off the curve)” value [7] was ~0.03 µg/mL. For the same binder, the “EC50 (read off the curve)” value [8] was ~0.03 µg/mL.

B2: 1F11 IgG1 F243A/V264A double mutein anti-PCSK9 antibody (antibody)
heavy: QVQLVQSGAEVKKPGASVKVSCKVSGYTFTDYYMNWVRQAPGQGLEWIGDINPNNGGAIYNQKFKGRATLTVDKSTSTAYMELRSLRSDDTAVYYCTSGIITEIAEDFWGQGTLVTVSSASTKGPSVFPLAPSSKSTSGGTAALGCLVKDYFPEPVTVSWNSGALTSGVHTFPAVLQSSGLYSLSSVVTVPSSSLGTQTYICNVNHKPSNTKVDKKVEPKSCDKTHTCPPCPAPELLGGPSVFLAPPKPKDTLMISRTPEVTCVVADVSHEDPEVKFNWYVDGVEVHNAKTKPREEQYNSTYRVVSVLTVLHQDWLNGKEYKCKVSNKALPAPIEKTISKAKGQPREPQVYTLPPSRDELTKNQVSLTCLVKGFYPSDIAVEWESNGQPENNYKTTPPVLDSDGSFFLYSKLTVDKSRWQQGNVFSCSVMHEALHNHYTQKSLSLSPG
light: B1 light
notes: sialylated N-glycans; also called 1F11 DM; YGLY23258
B2 showed an IC50 [9] of 0.6 µg/mL, an IC50 [10] of 0.09 µg/mL and a Kd [1] of 2520 nM. For the same binder, the Kd [2] was 97 nM, the “EC50 (read off the curve)” value [3] was ~0.2 µg/mL and the “EC50 (read off the curve)” value [4] was ~0.1 µg/mL. The “EC50 (read off the curve)” value [5] was ~0.1 µg/mL, the “EC50 (read off the curve)” value [6] was ~0.1 µg/mL and the “EC50 (read off the curve)” value [7] was ~0.2 µg/mL. For the same binder, the “EC50 (read off the curve)” value [8] was ~0.1 µg/mL and the Kd [11] was 1690 nM.
